Laboratory results from patent US11224632B2 (priority 2016, dated 2022).
Entries after “also recorded” stand apart in the source; their conditions may differ. Where no end group is shown, it is not given here. [ ]: non-standard residue; d: D form.

Columns and labels:
[1] = biological target: CaV2.2 channel (Homo sapiens, UniProt Q00975); format: cell-based
[2] = biological target: T1, CaV1.2 channel (Oryctolagus cuniculus, UniProt P15381); test: whole cell patch clamp of CaV1.2-mediated ion currents in tsA201 cells co-expressing CaV1.2 and CaVbeta2e; format: cell-based, rabbit; settings: 150 nM peptide
T1 construct: The coding regions of the two different alpha1 pore-forming units (CaValpha1) of the voltage-dependent calcium channel were fused in frame; expressed in transfected cells; host or cells: tsA201 cells, transient co-transfection
T1 sequence (P15381 whole entry, the tested form may be a part): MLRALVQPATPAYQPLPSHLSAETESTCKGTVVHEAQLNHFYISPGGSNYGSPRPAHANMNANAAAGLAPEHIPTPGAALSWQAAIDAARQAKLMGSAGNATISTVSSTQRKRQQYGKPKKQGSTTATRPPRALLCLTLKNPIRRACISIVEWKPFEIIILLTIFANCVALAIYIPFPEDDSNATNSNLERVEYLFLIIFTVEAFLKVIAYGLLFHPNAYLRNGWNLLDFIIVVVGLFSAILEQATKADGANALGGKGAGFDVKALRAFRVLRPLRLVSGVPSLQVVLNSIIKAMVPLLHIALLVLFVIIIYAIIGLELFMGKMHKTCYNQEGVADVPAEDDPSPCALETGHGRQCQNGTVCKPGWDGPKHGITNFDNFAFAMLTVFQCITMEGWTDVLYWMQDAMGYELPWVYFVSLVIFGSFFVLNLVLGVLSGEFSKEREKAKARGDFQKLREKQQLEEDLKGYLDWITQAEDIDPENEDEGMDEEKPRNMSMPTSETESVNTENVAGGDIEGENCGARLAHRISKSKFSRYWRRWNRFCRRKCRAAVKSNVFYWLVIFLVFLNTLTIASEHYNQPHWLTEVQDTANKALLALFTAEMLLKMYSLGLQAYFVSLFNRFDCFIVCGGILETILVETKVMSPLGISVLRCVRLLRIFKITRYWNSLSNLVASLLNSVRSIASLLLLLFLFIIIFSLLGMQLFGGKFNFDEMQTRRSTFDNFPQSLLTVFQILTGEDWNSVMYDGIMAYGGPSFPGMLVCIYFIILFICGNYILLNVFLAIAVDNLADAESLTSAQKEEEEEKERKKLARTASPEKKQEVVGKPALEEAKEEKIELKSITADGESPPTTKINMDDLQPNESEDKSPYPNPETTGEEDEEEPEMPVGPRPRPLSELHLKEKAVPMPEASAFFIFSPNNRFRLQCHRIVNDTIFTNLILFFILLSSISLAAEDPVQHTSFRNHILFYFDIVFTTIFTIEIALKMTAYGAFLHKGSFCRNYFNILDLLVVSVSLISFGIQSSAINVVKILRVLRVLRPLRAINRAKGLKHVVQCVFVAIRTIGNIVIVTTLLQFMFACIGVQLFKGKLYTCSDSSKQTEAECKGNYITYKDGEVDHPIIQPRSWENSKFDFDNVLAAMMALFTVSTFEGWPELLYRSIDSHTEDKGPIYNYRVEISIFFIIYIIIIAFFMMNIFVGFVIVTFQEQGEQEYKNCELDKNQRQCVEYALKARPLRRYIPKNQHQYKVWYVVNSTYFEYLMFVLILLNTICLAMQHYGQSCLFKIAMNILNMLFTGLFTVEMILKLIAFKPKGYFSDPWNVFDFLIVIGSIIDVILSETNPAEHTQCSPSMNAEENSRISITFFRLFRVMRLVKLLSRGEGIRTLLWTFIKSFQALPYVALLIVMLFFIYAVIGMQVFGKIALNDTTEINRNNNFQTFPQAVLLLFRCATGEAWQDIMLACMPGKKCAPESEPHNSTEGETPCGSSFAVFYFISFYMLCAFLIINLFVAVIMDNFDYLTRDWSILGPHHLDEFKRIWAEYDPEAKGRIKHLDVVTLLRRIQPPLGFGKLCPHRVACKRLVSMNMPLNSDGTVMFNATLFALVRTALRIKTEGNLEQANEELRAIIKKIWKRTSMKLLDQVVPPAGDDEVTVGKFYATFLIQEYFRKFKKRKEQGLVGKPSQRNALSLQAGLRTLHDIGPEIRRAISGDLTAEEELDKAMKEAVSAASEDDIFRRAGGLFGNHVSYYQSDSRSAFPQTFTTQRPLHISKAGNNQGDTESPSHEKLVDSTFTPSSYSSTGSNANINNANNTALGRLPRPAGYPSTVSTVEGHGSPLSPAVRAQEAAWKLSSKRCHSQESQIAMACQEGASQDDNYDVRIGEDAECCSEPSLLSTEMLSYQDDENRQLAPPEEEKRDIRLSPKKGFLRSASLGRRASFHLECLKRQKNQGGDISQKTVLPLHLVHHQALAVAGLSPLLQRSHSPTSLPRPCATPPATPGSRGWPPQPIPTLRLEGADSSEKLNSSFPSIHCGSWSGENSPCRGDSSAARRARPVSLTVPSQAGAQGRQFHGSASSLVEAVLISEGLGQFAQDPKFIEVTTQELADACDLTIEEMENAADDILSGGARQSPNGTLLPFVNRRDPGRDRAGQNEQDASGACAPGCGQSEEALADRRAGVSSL
T1 sequence (Q8VGC3 1-611 isoform Q8VGC3-4 partner): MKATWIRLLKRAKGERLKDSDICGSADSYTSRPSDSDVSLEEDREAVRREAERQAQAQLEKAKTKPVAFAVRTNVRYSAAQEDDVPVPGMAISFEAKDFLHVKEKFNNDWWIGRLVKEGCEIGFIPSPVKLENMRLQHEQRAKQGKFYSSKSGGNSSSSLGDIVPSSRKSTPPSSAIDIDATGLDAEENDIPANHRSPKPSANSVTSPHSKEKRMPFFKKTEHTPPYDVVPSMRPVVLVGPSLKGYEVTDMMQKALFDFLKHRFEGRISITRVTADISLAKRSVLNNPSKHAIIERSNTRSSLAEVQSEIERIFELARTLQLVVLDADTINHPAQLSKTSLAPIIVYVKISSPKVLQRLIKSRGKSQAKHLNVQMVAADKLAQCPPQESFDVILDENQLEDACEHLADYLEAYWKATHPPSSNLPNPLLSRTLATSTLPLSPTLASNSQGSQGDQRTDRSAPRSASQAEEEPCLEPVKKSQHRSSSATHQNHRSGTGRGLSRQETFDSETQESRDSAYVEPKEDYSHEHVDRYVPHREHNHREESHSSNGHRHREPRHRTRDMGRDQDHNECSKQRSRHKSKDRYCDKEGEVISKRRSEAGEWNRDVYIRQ

Chain of CaV2.2 channel (Q00975 whole entry, looked up): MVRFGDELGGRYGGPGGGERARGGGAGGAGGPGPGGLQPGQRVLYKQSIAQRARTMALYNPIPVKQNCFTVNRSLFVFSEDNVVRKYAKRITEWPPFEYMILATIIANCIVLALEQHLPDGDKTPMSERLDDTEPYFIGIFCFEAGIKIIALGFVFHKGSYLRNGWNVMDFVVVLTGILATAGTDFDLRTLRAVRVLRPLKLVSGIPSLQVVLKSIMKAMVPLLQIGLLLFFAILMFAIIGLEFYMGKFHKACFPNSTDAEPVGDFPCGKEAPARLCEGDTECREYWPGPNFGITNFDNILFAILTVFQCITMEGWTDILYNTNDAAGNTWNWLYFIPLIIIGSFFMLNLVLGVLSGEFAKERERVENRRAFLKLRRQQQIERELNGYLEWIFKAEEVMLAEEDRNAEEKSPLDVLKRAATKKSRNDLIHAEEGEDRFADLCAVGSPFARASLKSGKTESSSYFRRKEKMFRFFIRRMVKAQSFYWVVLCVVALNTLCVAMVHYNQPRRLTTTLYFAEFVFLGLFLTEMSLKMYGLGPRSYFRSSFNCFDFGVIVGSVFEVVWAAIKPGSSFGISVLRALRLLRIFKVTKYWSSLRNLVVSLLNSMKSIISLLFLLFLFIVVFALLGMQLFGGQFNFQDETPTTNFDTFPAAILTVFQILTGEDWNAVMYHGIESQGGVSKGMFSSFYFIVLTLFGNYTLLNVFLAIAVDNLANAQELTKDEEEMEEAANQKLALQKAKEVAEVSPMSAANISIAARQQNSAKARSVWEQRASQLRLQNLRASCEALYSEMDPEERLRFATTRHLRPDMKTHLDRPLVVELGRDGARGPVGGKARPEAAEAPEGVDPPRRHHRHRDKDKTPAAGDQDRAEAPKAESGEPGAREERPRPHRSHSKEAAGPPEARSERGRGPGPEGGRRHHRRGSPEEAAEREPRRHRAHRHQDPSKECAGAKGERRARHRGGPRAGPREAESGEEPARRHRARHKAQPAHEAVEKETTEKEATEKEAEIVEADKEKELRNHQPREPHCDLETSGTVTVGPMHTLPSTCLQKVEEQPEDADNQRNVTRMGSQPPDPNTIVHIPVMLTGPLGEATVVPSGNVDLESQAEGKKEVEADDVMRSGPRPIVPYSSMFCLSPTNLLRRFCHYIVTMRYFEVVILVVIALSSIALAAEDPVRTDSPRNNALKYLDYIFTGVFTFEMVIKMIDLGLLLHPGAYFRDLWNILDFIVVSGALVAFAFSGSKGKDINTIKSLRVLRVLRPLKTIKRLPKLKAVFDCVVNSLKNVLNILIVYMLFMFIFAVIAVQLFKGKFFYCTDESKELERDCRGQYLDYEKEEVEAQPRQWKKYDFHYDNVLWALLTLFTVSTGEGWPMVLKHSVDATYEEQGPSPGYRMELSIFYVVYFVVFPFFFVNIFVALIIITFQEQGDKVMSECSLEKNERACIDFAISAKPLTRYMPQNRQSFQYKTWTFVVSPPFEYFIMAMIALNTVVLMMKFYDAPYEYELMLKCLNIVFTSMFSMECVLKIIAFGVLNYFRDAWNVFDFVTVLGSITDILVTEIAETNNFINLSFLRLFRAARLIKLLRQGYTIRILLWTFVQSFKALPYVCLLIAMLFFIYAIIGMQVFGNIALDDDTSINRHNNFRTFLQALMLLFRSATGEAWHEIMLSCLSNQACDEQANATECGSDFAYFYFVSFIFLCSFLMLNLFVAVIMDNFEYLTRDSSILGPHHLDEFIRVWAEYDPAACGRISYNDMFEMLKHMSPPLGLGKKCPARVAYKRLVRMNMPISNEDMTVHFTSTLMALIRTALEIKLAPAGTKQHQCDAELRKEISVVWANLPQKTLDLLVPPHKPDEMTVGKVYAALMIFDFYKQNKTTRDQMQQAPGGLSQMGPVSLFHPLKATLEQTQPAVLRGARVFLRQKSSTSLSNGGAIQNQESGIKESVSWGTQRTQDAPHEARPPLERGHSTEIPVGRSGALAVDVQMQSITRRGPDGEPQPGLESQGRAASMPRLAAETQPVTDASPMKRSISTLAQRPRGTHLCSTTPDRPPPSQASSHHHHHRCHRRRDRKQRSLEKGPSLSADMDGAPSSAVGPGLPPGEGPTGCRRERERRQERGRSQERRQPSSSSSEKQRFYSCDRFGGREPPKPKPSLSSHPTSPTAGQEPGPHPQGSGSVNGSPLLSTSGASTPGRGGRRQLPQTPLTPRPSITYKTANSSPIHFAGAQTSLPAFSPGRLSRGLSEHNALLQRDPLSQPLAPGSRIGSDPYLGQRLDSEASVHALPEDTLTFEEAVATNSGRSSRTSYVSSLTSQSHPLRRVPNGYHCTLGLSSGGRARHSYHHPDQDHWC

Substance | effect on CaV2.2-mediated ion currents (control blocker) [1] | change in voltage-dependent activation of the CaV2.2 channel (activation curve) [1] | effect on CaV2.2-mediated ion current [1] | reduction in the ion current at all tested voltages (current-to-voltage plot) [1] | voltage dependency of activation of the CaV1.2 channel [2] | effect on CaV1.2-mediated ion current ([2]; pulses -90 mV to +10 mV) | reversibility of inhibition of CaV2.2 current [1]
omega-conotoxin [reference compound] | interrupted | – | – | – | – | – | –
ptlhthnrrrrr ([dP][dT][dL][dH][dT][dH][dN][dR][dR][dR][dR][dR]) [RD2] | – | not accompanied by a change in voltage-dependent activation of the channel | significant reduction in the ion current; also recorded: blocks the CaV2.2 channel | up to 55% | not affected | remained virtually unchanged; also recorded: insensitive | –
rprtrlhthrnr ([dR][dP][dR][dT][dR][dL][dH][dT][dH][dR][dN][dR]) [D3] | – | not accompanied by a change in voltage-dependent activation of the channel | significant reduction in the ion current; also recorded: blocks the CaV2.2 channel | up to 54% | – | – | reversible
